Test results: IntAct's records for PubMed 12679340

Biological target: otc_yeast ARG3 (UniProt P05150)
Sequence (P05150 whole entry): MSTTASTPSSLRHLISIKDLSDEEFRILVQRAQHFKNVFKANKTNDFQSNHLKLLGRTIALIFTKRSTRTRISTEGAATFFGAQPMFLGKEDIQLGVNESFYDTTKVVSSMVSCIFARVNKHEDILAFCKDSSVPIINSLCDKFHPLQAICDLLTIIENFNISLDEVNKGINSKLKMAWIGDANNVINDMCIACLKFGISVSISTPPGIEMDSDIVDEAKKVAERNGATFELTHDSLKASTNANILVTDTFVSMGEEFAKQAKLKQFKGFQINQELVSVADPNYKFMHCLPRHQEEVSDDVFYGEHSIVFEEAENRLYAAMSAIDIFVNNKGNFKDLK

Arginase (Saccharomyces cerevisiae), P00812 C321R;C326T, sequence (P00812 whole entry C321R/C326T): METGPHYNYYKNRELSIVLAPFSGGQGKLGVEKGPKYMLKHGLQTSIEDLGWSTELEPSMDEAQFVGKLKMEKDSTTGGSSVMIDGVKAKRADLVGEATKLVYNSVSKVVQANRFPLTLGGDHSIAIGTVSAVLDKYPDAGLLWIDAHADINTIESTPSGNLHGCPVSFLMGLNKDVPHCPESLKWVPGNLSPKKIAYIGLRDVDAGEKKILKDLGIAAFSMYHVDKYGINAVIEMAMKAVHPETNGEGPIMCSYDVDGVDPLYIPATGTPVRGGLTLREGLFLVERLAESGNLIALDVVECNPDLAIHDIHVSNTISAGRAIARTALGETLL

Arginase (Saccharomyces cerevisiae), P00812 C321R;C326T
effect of a mutation on the interaction: decreasing interaction
